The record followed here is article PMC9122598, “NASP maintains histone H3–H4 homeostasis through two distinct H3 binding modes” (Nucleic Acids Research, 2022).

The test system of this assay is H3–H4 tetramer. In words: GST pulldown of H3–H4 with frog GST-NASP.Sc. It counts as binding. The method, then: As mentioned above the GST-tagged sNASPc, frog NASP.Sc and their mutants could not be separated into dimer and monomer peaks during the purification steps, the conformations of these proteins used for pulldowns were mixtures of dimer and monomer. […] All the samples were analyzed with SDS-PAGE.

B1: frog NASP.S: frog homologue of sNASP (N1/N2); tested as GST-NASP.Sc dimer/monomer mixture (protein)
chain: SAEKADGIDIDTEAKRLMGAGQKHLVMKDVRSAVNLFQEASSLLAKQYGETADECAEAFYSYGMSLLELARLENEGTEEKETEEEDVGNLQLAWEMLDLCKTIFKRQQSKEAQLKAAQAHQKLGEVCIESENYSQAVEDFLACLNIQKEHLEEHDRLLAETHYHLGLAYQYSSKHEEAISHFTQSIGVIEKRMDVLTKQLEASVGELVDEVKKEMDELKDLLPDIKEKIEDSKEAQKNATVTEKALKETLVGGSS
modifications: left off: GST, N-terminal, cleaved
notes: frog homologue of sNASP (N1/N2); tested as GST-NASP.Sc dimer/monomer mixture
Turning to B1, the “Retention of H3 vs H4 in pulldown” value (in the absence of H3 αN-binding) was “retained more H3 than H4”. The “Pulldown binding to H3–H4” value (incubation 0.3 M NaCl, wash […] NaCl) is “H3 αN- and α3-binding sites are conserved”.
